According to patent US7053044B1, “Artificial peptides having surface activity and the use thereof in the preparation of artificial surfactant” (Chiesi Farmaceutici S.p.A., priority 1999, dated 2006):
Ends that are not written are not given here.

Columns and labels:
[1] = Preparation of peptide/lipid mixtures (attainable lipid concentration); format: physicochemical; conditions: polypeptide/lipid ratio of 0.03
Description: DPPC, PG and PA were all purchased from Sigma Chemical Co. (St Louis, Mo.). The lipids, dissolved in chloroform/methanol 98:2 (v/v), were mixed in the proportions DPPC:PG:PA 68:22:9 (w/w/w) or DPPC/PG 7:3 (w/w). Surfactant preparations were prepared by adding SP-C(LKS) alone or SP-C(LKS) and SP-B, to each of the lipid mixtures, at total polypeptide/lipid weight ratios of 0–0.05. The mixtures were evaporated under nitrogen and resuspended in 150 mmol/l NaCl or in 10 mmol/l Hepes buffer pH 6,9 containing 140 mmol/l NaCl and 2.0 mmol/l CaCl2, at lipid concentrations of 10–80 mg/ml. Repeated freezing and sonication (50 W, 48 kHz) were performed until homogeneous suspensions were achieved. In some cases the final suspensions were incubated at 45° C. for 1 h.

[2] = SDS-PAGE (oligomer formation); format: physicochemical
From the text: The purity of the peptide was checked by sodium-dodecylsulphate (SDS) polyacrylamide gel electrophoresis (PAGE) (Phast-system, Pharmacia, Sweden) and by reversed phase high performance liquid chromatography (HPLC), using a C18 column and a linear gradient of 60% aqueous methanol/0.1% TFA and isopropanol/0.1% TFA (Gustafsson, M. et al. (1997) Biochem. J. 326, 799–806).

[3] = Peptide secondary structure by circular dichroism (CD) spectroscopy; format: physicochemical
Description: Peptide secondary structure was investigated using circular dichroism (CD) spectroscopy (Jasco-720 Jasco, Japan). After solubilisation with triflouroethanol (TFE) spectra were recorded from 260 to 184 nm with a scan speed of 20 nm/min and a resolution of 2 data points/nm. The residual molar ellipticy was calculated and expressed in kdeg×cm^2/dmol. Molar ellipticities at 208 and 222 nm were utilised for estimating the content of helical structure (Barrow, C. J. et al. (1992) J. Mol. Biol. 225, 1075–1093).

[4] = Nilsson, G. et al. (1998) Eur. J. Biochem. 255, 116–124; cited from earlier work
[5] = Surface film stability, captive bubble system; format: physicochemical; conditions: surfactant mixtures, samples containing 5% of peptide
Description: In an even more preferred embodiment of the invention, surfactant mixtures containing the peptide in which palmitoyl chains are O-covalently linked to the Ser residues should be used. […] In the samples containing 5% of dipalmitoylated peptide, the γmin was below 1.5 mN/m and the films very stable, as the surface tension increased by less than 0.5 mN/m within 10 min at constant bubble volume.

[6] = target: the molecule itself; experiment: SDS-PAGE, self-association (oligomerisation)

For “FGIPSSPVHLKRLLILKLLLLKILLLKLGALLMGL [SP-C(LKS), SP-C analogue: Val 16–28 replaced with Leu, Lys at 17, 22, 27, Cys 5 and 6 replaced with Ser]”, the “lipid concentration of peptide/lipid mixture that could be made” value [1] was 80 mg/mL, the “SDS-PAGE pattern (oligomerisation)” value [2] was “single band” and the α-helical content ([3]; solubilised in TFE, estimated from the 208 nm and 222 nm minima) was “approximately 75%”. The “secondary structure on dilution” value ([3]; stepwise dilution with H2O until 12% TFE, peptide solubilized in neat TFE) was “remained stable”.

In the case of “SP-C(Leu): reference peptide; transmembranous SP-C analogue with all helical Val residues replaced with Leu (Nilsson et al.) (FGIPSSPVLKRLLILLLLLLLILLLILGALLMGL)”, the “highest concentration of lipid-peptide mixture that can be prepared / solubilized” value [4] is given as ≤ 20 mg/mL, the “γmin (captive bubble system)” value [5] is given as “approx. 5 mN/m” and the “SDS-PAGE pattern (oligomerisation)” value [2] is given as “forms oligomers”.

B1: SP-C(LKS) (peptide)
peptide: FGIPSSPVHLKRLLILKLLLLKILLLKLGALLMGL
modifications: ends and bridges not checked
notes: The non-acylated form was run in SDS-PAGE; also called analogue of SP-C
B1: no binding [6].
